Data from PMC4245959, “Molecular recognition of RhlB and RNase D in the Caulobacter crescentus RNA degradosome” (Nucleic Acids Research, 2014).
Values belong to the molecule of their own block, whether it stands above or below them.

B1: recombinant RNase D with an N-terminal hexa-histidine tag (enzyme, Caulobacter crescentus (CB15), UniProt Q9A7L8 1-389, looked up)
chain: MKLITTTAELAAFCNGLAGEPFVAVDTEFMRETTYWPKLCLIQVASPTQEAVIDPLADNIDLEPLLVVMRDERILKVFHAARQDVEIFNNLKAMPKPLFDTQVAGMAAGFGEQIAYDALVRQMLRIEIDKSSRFTDWARRPLTDAQLSYALADVTHLAKLFPILRERLETSGRLAWVEEEMTAISDPAAYDVDPEKAWRRLRPRKTAPKYLAVFKAVAAWRERTAQNRDQPRGRILKDEAIDELATQTPGNLEALNNLRGVPKGFGGSKFGPDLLAAIKDALADPEGYAPVVDKPGPPPPQNAGAVVELLKVLLKARAEEAGVASKLIATVSDLEKIAADDNATTPALTGWRREAFGSDALKIKRGELALVLDGARVRVVEVRRAPKND
notes: ribonuclease D; the RNase D gene (cc1704) amplified from C. crescentus (CB15) genomic DNA into pETDuet-1; also called 6xHis-tagged RNase D; not shown: His6, N-terminal, kept
B2: C. crescentus RNase E catalytic domain, residues 1–575, N-terminally 6xHis tagged (domain or fragment, Caulobacter crescentus, UniProt Q9A749 1-575, looked up)
chain: MSKKMLIDAAHAEETRVVVVDGTRVEEFDFESQTRKQLRGNIYLAKVTRVEPSLQAAFIEYGGNRHGFLAFNEIHPDYYQIPVADREALMRDDSGDDEDDTPISRRASGGDDEDDVNGGDRAVDDDDDDVEEELARRKRRLMRKYKIQEVIRRRQIMLVQVVKEERGNKGAALTTYLSLAGRYGVLMPNTARGGGISRKITAVTDRKRLKSVVQSLDVPQGMGLIVRTAGAKRTKAEIKRDYEYLLRLWENIRENTLHSIAPALIYEEEDLVKRAIRDMYDKDLDGIWVEGDAGYKEARDFMRMLMPSQAKKVFNYRDPTPLFVKNKIEDHLAQIYSPVVPLRSGGYLVINQTEALVAIDVNSGKATRERNIEATALKTNCEAAEEAARQLRLRDLAGLIVIDFIDMDEAKNNRTVEKVLKDALKDDRARIQMGKISGFGLMEISRQRRRTGVLEGTTHVCEHCEGTGRVRSVESSALAALRAVEAEALKGSGSVILKVSRSVGLYILNEKRDYLQRLLTTHGLFVSVVVDDSLHAGDQEIERTELGERIAVAPPPFVEEDDDFDPNAYDDEEEE
notes: tetramer by AUC; also called CcNTD
B3: recombinantly expressed and purified RhlB (enzyme, Caulobacter crescentus, UniProt Q9A779 1-517, looked up)
chain: MTEFTDLGLSPTTLQAVADTGYTTATPIQAQAIPVALAGQDVLGIAQTGTGKTAAFTLPLIDRLQSGRAKARMPRALVIAPTRELADQVAASFEKYAKGTKLSWALLIGGVSFGDQEKKLDRGVDVLIATPGRLLDHFERGKLLMTGVQFLVVDEADRMLDMGFIPDIERIFKMTPPKKQTLFFSATMPPEITRLTKQFLRDPVRIEVARPATTNANITQLLVKVPSSDPKAKRLALRALIEKAGIETGIVFCNRKTEVDIVAKSLKVHGYDAAPIHGDLDQTQRMKTLADFRSGALKILVASDVAARGLDIPAVSHVFNYDVPHHADDYVHRIGRTGRAGRTGITYMLVTPADDKGFDKVIKLIGSTPDEEKLDLDYSNAVTVKREGDRKRGGRDRDRGERGERSERPARGRGRGRERAEETVEAPAEAVAEIVDTPAMAEERPARERRPRREREPKAAAPAPTAVEAERPARAERPERPVRGVQPVRDRDDDDRRVVGFGSDVPAFLARPPRGAK
notes: DEAD-box RNA helicase RhlB (cc1847) of Caulobacter crescentus; monomeric in solution; source: recombinantly expressed and purified

What was measured:
[1] = biological target: fragment of C. crescentus RNase E containing the S1 and 5′-sensor sub-domains, residues 1–274 (Caulobacter crescentus); test: AUC; sedimentation velocity of the co-expressed, co-purified CcNTD(1–274)–RhlB complex at 2 mg/ml in 20-mM Tris pH 7.5, 200-mM NaCl, 20°C, 50 000 rpm
[2] = biological target: the molecule itself; test: AUC; recombinant RNase D alone; single species of 85.9 kDa
[3] = biological target: the molecule itself; test: AUC; sedimentation velocity, CcNTD(1–575) alone at 2 mg/ml in NTD buffer, 20°C, 40 000 rpm
[4] = biological target: B2; test: AUC; sedimentation velocity of the SEC fractions of the CcNTD(1–575)–RhlB complex; continuous molar mass distribution; conditions: both partners purified

stoichiometry N [1]: 1
Molecule: RhlB co-expressed with CcNTD_(1–274) (enzyme)

Molecule: B1
stoichiometry N [2]: 2

Molecule: B2
stoichiometry N [3]: 4

Molecule: B3
stoichiometry N [4]: 2 RhlB monomers per CcNTD_(1–575) tetramer
